{"source": "paper PMC2665213", "about": "(Nucleic Acids Research, 2009)", "binders": {"B1": {"name": "RRM1 (first RRM domain of mouse TDP-43) (domain or fragment, UniProt Q921F2 101-191, looked up)", "chain": "QKTSDLIVLGLPWKTTEQDLKDYFSTFGEVLMVQVKKDLKTGHSKGFGFVRFTEYETQVKVMSQRHMIDGRWCDCKLPNSKQSPDEPLRSR"}, "B2": {"name": "RRM2 (second RRM domain of mouse TDP-43) (domain or fragment)", "chain": "MRGSHHHHHHGSKVFVGRCTEDMTAEELQQFFCQYGEVVDVFIPKPFRAFAFVTFADDKVAQSLCGEDLIIKGISVHISNAEPKHNKLN"}, "B3": {"name": "(UG)4 (ssRNA)", "RNA": "UGUGUGUG"}, "B4": {"name": "(UG)3 (ssRNA)", "RNA": "UGUGUG"}, "B5": {"name": "(UG)6 (ssRNA)", "RNA": "UGUGUGUGUGUG"}, "B6": {"name": "TDP-43s (truncated mouse TAR DNA-binding protein 43 covering both RRM domains) (domain or fragment)", "chain": "MRGSHHHHHHGSQKTSDLIVLGLPWKTTEQDLKDYFSTFGEVLMVQVKKDLKTGHSKGFGFVRFTEYETQVKVMSQRHMIDGRWCDCKLPNSKQSPDEPLRSRKVFVGRCTEDMTAEELQQFFCQYGEVVDVFIPKPFRAFAFVTFADDKVAQSLCGEDLIIKGISVHISNAEPKHNKLN"}, "B7": {"name": "10-mer crystal ssDNA (ssDNA)", "DNA": "GTTGAGCGTT"}, "B8": {"name": "(UG)8 (ssRNA)", "RNA": "UGUGUGUGUGUGUGUG"}}, "key": {"SEC [1]": {"biological_target": "the molecule itself", "assay": "SEC"}, "SEC [2]": {"biological_target": "the molecule itself", "assay": "SEC", "remark": "listed apart in the source"}, "TDP-43s (RRM1-RRM2) [3]": {"biological_target": "T1, TDP-43s (RRM1-RRM2) (mouse, UniProt Q921F2 101-265)", "assay": "filter binding"}, "TDP-43 RRM2 [4]": {"biological_target": "T2, TDP-43 RRM2 (mouse, UniProt Q921F2 192-265)", "assay": "filter binding"}, "TDP-43 RRM1 [5]": {"biological_target": "T3, TDP-43 RRM1 (mouse, UniProt Q921F2 101-191)", "assay": "filter binding"}, "TDP-43 RRM2 [6]": {"biological_target": "T2, TDP-43 RRM2", "assay": "filter binding", "remark": "listed apart in the source"}, "TDP-43 RRM1 [7]": {"biological_target": "T3, TDP-43 RRM1", "assay": "filter binding", "remark": "listed apart in the source"}, "TDP-43s (RRM1-RRM2) [8]": {"biological_target": "T1, TDP-43s (RRM1-RRM2)", "assay": "filter binding", "remark": "listed apart in the source"}, "TDP-43 RRM2 [9]": {"biological_target": "T2, TDP-43 RRM2", "assay": "crystal structure"}}, "note": "Like-named read-outs stand apart in the source and are kept apart here."}
{"binder": "B1", "values": [{"measurement": "stoichiometry N", "setting": "SEC [1]", "value": 4}]}
{"binder": "B2", "values": [{"measurement": "stoichiometry N", "setting": "SEC [2]", "value": 2}, {"measurement": "stoichiometry N", "setting": "SEC [1]", "value": 4}]}
{"binder": "B3", "values": [{"measurement": "Kd", "setting": "TDP-43s (RRM1-RRM2) [3]", "value": 115, "unit": "nM"}]}
{"binder": "B4", "values": [{"measurement": "Kd", "setting": "TDP-43 RRM2 [4]", "value": 379, "unit": "nM"}, {"measurement": "Kd", "setting": "TDP-43 RRM1 [5]", "value": 4690, "unit": "nM"}, {"measurement": "Kd", "setting": "TDP-43s (RRM1-RRM2) [3]", "value": 3060, "unit": "nM"}]}
{"binder": "B5", "values": [{"measurement": "Kd", "setting": "TDP-43 RRM2 [6]", "value": 4240, "unit": "nM"}, {"measurement": "Kd", "setting": "TDP-43 RRM1 [7]", "value": 65.2, "unit": "nM"}, {"measurement": "Kd", "setting": "TDP-43s (RRM1-RRM2) [8]", "value": "14.2 ± 1.4", "unit": "nM"}]}
{"binder": "B6", "values": [{"measurement": "stoichiometry N", "setting": "SEC [1]", "value": 2}]}
{"binder": "B7", "values": [{"measurement": "binding result", "setting": "TDP-43 RRM2 [9]", "value": "binds"}]}
{"binder": "B8", "values": [{"measurement": "Kd", "setting": "TDP-43s (RRM1-RRM2) [3]", "value": 2.79, "unit": "nM"}]}
